From the RNAGym collection of RNA variant scans (doi:10.1073/pnas.2313332121)
This sample holds only a part of the variants without activity.

B1: TPR 5TU (parent)
chain: GGAUCUUCUCGAUCUAACAAAAAAGACAAAUCUGCCACAAAGCUUGAGAGCAUCUUCGGAUGCAGAGGCGGCAGCCUUCGGUGGCGCGAUAGCGCCAACGUUCUCAACUAUGACACGCAAAACGCGUGCUCCGUUGAAUGGAGUUUAUCAUG

Variants of: B1
Test: polymerase ribozyme fitness, log enrichment relative to wild type (log ratio); higher = more active; in vitro selection for triplet polymerase activity
Procedure, shortened: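 The heterodimeric triplet polymerase ribozyme's subunits were each mutagenized into PCR-built libraries and transcribed. Every library was selected once, in triplicate, by annealing with a biotinylated primer, the partner subunit and triplets, incubating frozen at −7 °C, gel-excising extended constructs, capturing on streptavidin beads and running RT-PCR. Input and output libraries were Illumina-sequenced, with genotypes kept only at ≥10 input reads and ≥1 read per output. Fitness, from inverse-variance-weighted replicate averages, is the base-2 logarithm of genotype enrichment over wild-type enrichment.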

Variant	polymerase ribozyme fitness (log ratio)
GGAUCUUCUCGAUCUAACAAAAAAGACAAAUCUGCCACAAAGCUUGAGAGCAUCUUCGGAUGCAGAGGAGGCAGCCGUCGGUGGCGCGAUAGCGCCAACGUUCUCAACUAUGACACGUAAAACGCGUGCUCCGUUGAACGGAGUUUAUCAUG [C69A U77G C118U U139C]	≤ -4.2
GGAUCUUCUCGAUCUAACAAAAAAGACAAAUCUGCCACAAAGCUUGAGAGCAUCUUCGGAUGCAGAGCCGGCAGCCUUCGGUGGCGCGAUAGCGCCAACGUUCUCAACUAUGACACGCAAACCGCGAGCUCCGUUGAAUGGAGUUUAUCAUG [G68C A122C U127A]	≤ -4.2
GGAUCUUCUCGAUCUAACAAAAAAGACAAAUCUGCCACAAAGCUUGAGAGCAUCUUCGGAUGCAGAGACGGCAGCCUUCGGUGGCGCGAUAGCGCCAAAGUUCUCAACUAUGACACGCAAAACGCGUGCUCCGUUGAAUGGAGUUUAUCAUG [G68A C99A]	≤ -4.2
GGAUCUUCUCGAUCUAACAAAAAAGACAAAUCUGCCACAAAGCUUGAGAGCAUCUUCGGAUGCAGAGCAGGCAGCCUUCGGUGGCGCGAUAUCGCCAACGUUCUCAACUAUGACACGCAAAACGCGUGCUCCGUUAAAUGGAGUUUAUCAUG [G68C C69A G92U G136A]	-4.11
GGAUCUUCUCGAUCUAACAAAAAAGACAAAUCUGCCACAAAGCUUGAGAGCAUCUUCGGAUGCAGAGGAGGCAGCCUUCGGUGGUGCGAUAGCGCCAACGUUCUCAACUAUGACACGCAAAACGCGUGCUCCGUUGAAUGGAGUUUAUCAUG [C69A C85U]	-1.65
GGAUCUUCUCGAUCUAACAAAAAAGACAAAUCUGCCACAAAGCUUGAGAGCAUCUUCGGAUGCAGAGACGGCAGCCUUCGGUGGUGCGAUAGCGCCAACGUUCUAAACUAUGACACGCAAAACACGUGCUCCUUUGAAUGGAGUUUAUCAUG [G68A C85U C105A G124A G133U]	≤ -4.2
GGAUCUUCUCGAUCUAACAAAAAAGACAAAUCUGCCACAAAGCUUGAGAGCAUCUUCGGAUGCAGAGGAGGCAGCCUUCGGUGGCACGAUAGCGCCAACGUUCUCAACUAUGACACGCAAAACGCGUGCUCCGUUGAAUGGAGUUUAUAAUG [C69A G86A C149A]	≤ -4.2
GGAUCUUCUCGAUCUAACAAAAAAGACAAAUCUGCCACAAAGCUUGAGAGCAUCUUCGGAUGCAGAGCCGGCAGCCUUCGGUGGCGCGAUAGCGCCUACGUACUCAACUAUGACACGCAAAACGCGUGCUCCGUUGAAUGGAGUUUAUCAUG [G68C A97U U102A]	≤ -4.2
GGAUCUUCUCGAUCUAACAAAAAAGACAAAUCUGCCACAAAGCUUGAGAGCAUCUUCGGAUGCAGAGCCGGCAGCCUUCGGUGGCGCGAUAGUGCCAACGUUCUCAACUAUGACACGCAAAACGCGUGCUCCGUUGAAUGGAGUUUAUCAUG [G68C C93U]	-4.04
GGAUCUUCUCGAUCUAACAAAAAAGACAAAUCUGCCACAAAGCUUGAGAGCAUCUUCGGAUGCAGAGACGGCAGCCUUCGGUGGCGCGAGAGCGCCAACGUUCUCAACUAUGACACGCAAAACGCGUGCUCCGUUGAAUGGAGUUUAUCUUG [G68A U90G A150U]	≤ -4.2
GGAUCUUCUCGAUCUAACAAAAAAGACAAAUCUGCCACAAAGCUUGAGAGCAUCUUCGGAUGCAGAGGAGGCAGCCUUCGAUGGCGCGAUAGCGCCAACGUUCUCAACUAUGACACGCAAAACGCGUGCUCCGUUGAAUGGAGUUUAUCAUG [C69A G81A]	-1.51
GGAUCUUCUCGAUCUAACAAAAAAGACAAAUCUGCCACAAAGCUUGAGAGCAUCUUCGGAUGCAGAGACGGCAGCCUUCGGUGGCGCAAUAGCGCCAACGUUCUCAACUAUGACAAGCUAAACGCGUGCUCCGUUGAAUGGAGUUUAUCAUG [G68A G88A C116A A119U]	-3.78
GGAUCUUCUCGAUCUAACAAAAAAGACAAAUCUGCCACAAAGCUUGAGAGCAUCUUCGGAUGCAGAGACGGCAGCCUUCGGUGGCGCGAUAGCGCCAACGUUCUCAACUAUGACACGCAAAACGCGUGCUCCGUUGAAUGGAGUUUUUCAUG [G68A A147U]	-4.05
GGAUCUUCUCGAUCUAACAAAAAAGACAAAUCUGCCACAAAGCUUGAGAGCAUCUUCGGAUGCAGAGACGGCAGCCUUCGUUGGCGCGAUAGCGCAAACGUUCUCAACUAUGACACGCAAAACGCGUGCUCCGUUGAAUGGAGUUUAUCAUG [G68A G81U C96A]	-3.57
GGAUCUUCUCGAUCUAACAAAAAAGACAAAUCUGCCACAAAGCUUGAGAGCAUCUUCGGAUGCAGAGACGGCAACCUUCGGUGGCGCGACAGCGCCAACGUUCUCAACUAUGACACGCAAAACGCGUGCUCCGUUGAAUGGAGUUUAUCAUG [G68A G74A U90C]	≤ -4.2
GGAUCUUCUCGAUCUAACAAAAAAGACAAAUCUGCCACAAAGCUUGAGAGCAUCUUCGGAUGCAGAGGAGGCAGCCUUCGGUGGCGCGAAAGCGCCAACGUUCUCAACUAUGACACGCAAAACGCGUGCUCCGUUGAAUGGAGUUUCUCAUG [C69A U90A A147C]	≤ -4.2
GGAUCUUCUCGAUCUAACAAAAAAGACAAAUCUGCCACAAAGCUUGAGAGCAUCUUCGGAUGCAGAGGAGGCAGCCUGCGGUGGCGCGAGAGCGCCAACGUUCUCAACUAUGACACGCAAAACGCGUACUUCGUUGAAUGGAGUUUAUCAUG [C69A U78G U90G G128A C131U]	≤ -4.2
GGAUCUUCUCGAUCUAACAAAAAAGACAAAUCUGCCACAAAGCUUGAGAGCAUCUUCGGAUGCAGAGGAGGCAGCCUUCGGUGGCGCGAUAGCGCCGUCGUUCACAACUAUGACACGCAAAACACGUGCUCCGUUGAAUGGAGUUUAUCAUG [C69A A97G A98U U104A G124A]	-2.14
GGAUCUUCUCGAUCUAACAAAAAAGACAAAUCUGCCACAAAGCUUGAGAGCAUCUUCGGAUGCAGAGGAGGCAGCCUUCGGUGUCGCGAUAGCGCCAACGUUCUCAACUAUGACACGCAAAACGCGUGCUCCGUUGGAUGGAGUUUAUCAUG [C69A G84U A137G]	-3.58
